Earlier results in publication PMC7768908 (Biochemistry, 2020).

Experiments:
[1] = tested on: MT1-MMP; details: by binding the cytoplasmic tail of MT1-MMP; ref [13]
[2] = tested on: cytoplasmic tail of MT1-MMP; details: ref [13]

binding to the cytoplasmic tail of MT1-MMP [2]: binds to the cytoplasmic tail of MT1-MMP
B1: ADI1 gene product: ADI1 gene encoding HsARD; human acireductone dioxygenase (protein, UniProt Q9BV57 1-179, looked up)
Acireductone dioxygenase: MVQAWYMDDAPGDPRQPHRPDPGRPVGLEQLRRLGVLYWKLDADKYENDPELEKIRRERNYSWMDIITICKDKLPNYEEKIKMFYEEHLHLDDEIRYILDGSGYFDVRDKEDQWIRIFMEKGDMVTLPAGIYHRFTVDEKNYTKAMRLFVGEPVWTAYNRPADHFEARGQYVKFLAQTA
effect on MT1-MMP protease activity [1]: suppressing protease activity
